Experimental data as given in patent publication US20260028387A1 (published 2026).

biological target: T1, HLA-A*02:01 (peptide-receptive MHC class I molecule of the UV-ligand exchange assay) (human); test: UV-ligand exchange, anti-b2m ELISA; peptide exchange yield grade (>=10% = +; >=20% = ++; >=50 = +++; >=75% = ++++)
T1 construct: MHC monomer first loaded with a UV-sensitive peptide (not identified) that is cleaved by UV light and exchanged for the test peptide; captured on streptavidin plates
From the text: Candidate peptides for T cell based therapies according to the present invention were further tested for their MHC binding capacity (affinity). The individual peptide-MHC complexes were produced by UV-ligand exchange, where a UV-sensitive peptide is cleaved upon UV-irradiation, and exchanged with the peptide of interest as analyzed. Only peptide candidates that can effectively bind and stabilize the peptide-receptive MHC molecules prevent dissociation of the MHC complexes. To determine the yield of the exchange reaction, an ELISA was performed based on the detection of the light chain (β2m) of stabilized MHC complexes. The assay was performed as generally described in Rodenko et al. (Rodenko et al., 2006).
96 well MAXISorp plates (NUNC) were coated aver night with 2 ug/ml streptavidin in PBS at room temperature, washed 4× and blocked for 1 h at 37° C. in 2% BSA containing blocking buffer. Refolded HLA-A*02:01/MLA-001 monomers served as standards, covering the range of 15-500 ng/ml. Peptide-MHC monomers of the UV-exchange reaction were diluted 100 fold in blocking buffer. Samples were incubated for 1 h at 37° C., washed four times, incubated with 2 ug/ml HRP conjugated anti-02m for 1 h at 37° C., washed again and detected with TMB solution that is stopped with […]. Absorption was measured at 450 nm. Candidate peptides that show a high exchange yield (preferably higher than 50%, most preferred higher than 75%) are generally preferred for a generation and production of antibodies or fragments thereof, and/or T cell receptors or fragments thereof, as they show sufficient avidity to the MHC molecules and prevent dissociation of the MHC complexes.

| Binder | peptide exchange yield [%] |
| --- | --- |
| SLDGTELQL (synthetic peptide; source gene TMEM102) [SLDGTELQL (SEQ ID NO: 29)] | 50 to 75 |
| LLSGDLIFL (synthetic peptide; source gene GJB5) [LLSGDLIFL (SEQ ID NO: 6)] | 50 to 75 |
| GLAFSLYQA (synthetic peptide; source gene SERPINH1) [GLAFSLYQA (SEQ ID NO: 40)] | 20 to 50 |
| NLREGDQLL (synthetic peptide; source gene AHNAK2) [NLREGDQLL (SEQ ID NO: 27)] | 50 to 75 |
| VLPKLYVKL (synthetic peptide; source genes RPS26P11, RPS26, RPS26P28, RPS26P15, RPS26P25, RPS26P58) [VLPKLYVKL (SEQ ID NO: 31)] | 20 to 50 |
| LLRFSQDNA (synthetic peptide; source gene LAP3) [LLRFSQDNA (SEQ ID NO: 35)] | 50 to 75 |
| YTQPFSHYGQAL (synthetic peptide; source gene RNPEP) [YTQPFSHYGQAL (SEQ ID NO: 37)] | 50 to 75 |
| ATGNDRKEAAENSL (synthetic peptide; source gene YWHAE) [ATGNDRKEAAENSL (SEQ ID NO: 44)] | 50 to 75 |
| MLTELEKAL (synthetic peptide; source gene S100A8) [MLTELEKAL (SEQ ID NO: 45)] | 20 to 50 |
| KLSDSATYL (synthetic peptide) [KLSDSATYL (SEQ ID NO: 23)] | 50 to 75 |
| RLPNAGTQV (synthetic peptide; source gene ITGA6) [RLPNAGTQV (SEQ ID NO: 14)] | ≥ 75 |
| VAIGGVDGNVRL (synthetic peptide; source gene WDR1) [VAIGGVDGNVRL (SEQ ID NO: 52)] | 20 to 50 |
| YQDLLNVKM (synthetic peptide; source genes DES, NEFM, NEFH, NEFL, VIM, INA) [YQDLLNVKM (SEQ ID NO: 54)] | 50 to 75 |
| FLLDQVQLGL (synthetic peptide; source gene TSPAN10) [FLLDQVQLGL (SEQ ID NO: 18)] | 50 to 75 |
| GLLVGSEKVTM (synthetic peptide; source genes KRT14, KRT16, KRT16P3) [GLLVGSEKVTM (SEQ ID NO: 69)] | 50 to 75 |
| SLLDTLREV (synthetic peptide; source gene PPP4R1) [SLLDTLREV (SEQ ID NO: 59)] | 50 to 75 |
| SMNGGVFAV (synthetic peptide; source gene SLC7A11) [SMNGGVFAV (SEQ ID NO: 67)] | 20 to 50 |
| NLMASQPQL (synthetic peptide; source gene PKP1) [NLMASQPQL (SEQ ID NO: 5)] | 50 to 75 |
| GLAPNTPGKA (synthetic peptide; source gene PRC1) [GLAPNTPGKA (SEQ ID NO: 57)] | 50 to 75 |
| VLAEGGEGV (synthetic peptide; source gene PDPN) [VLAEGGEGV (SEQ ID NO: 16)] | 50 to 75 |
| VVVTGLTLV (synthetic peptide; source gene ARHGDIA) [VVVTGLTLV (SEQ ID NO: 53)] | 20 to 50 |
| FLPPAQVTV (synthetic peptide; source gene NOL6) [FLPPAQVTV (SEQ ID NO: 72)] | 20 to 50 |

| Binder | peptide exchange yield [%] |
| --- | --- |
| SIFEGLLSGV (synthetic peptide; source gene GJB5) [SIFEGLLSGV (SEQ ID NO: 7)] | 20 to 50 |
| GLTDVIRDV (synthetic peptide; source gene FBXL18) [GLTDVIRDV (SEQ ID NO: 64)] | ≥ 75 |
| SLYNLGGSKRISI (synthetic peptide; source gene KRT5) [SLYNLGGSKRISI (SEQ ID NO: 2)] | ≥ 75 |
| LILESIPVV (synthetic peptide; source gene MAPK6) [LILESIPVV (SEQ ID NO: 58)] | 20 to 50 |
| LLDEKVQSV (synthetic peptide; source gene TSHZ3) [LLDEKVQSV (SEQ ID NO: 66)] | 50 to 75 |
| LLPPPPPPA (synthetic peptide; source gene ADAMTS2) [LLPPPPPPA (SEQ ID NO: 25)] | 50 to 75 |
| TQTTHELTI (synthetic peptide; source gene PCBP1) [TQTTHELTI (SEQ ID NO: 61)] | 50 to 75 |
| TASAITPSV (synthetic peptide; source gene KRT5) [TASAITPSV (SEQ ID NO: 3)] | 50 to 75 |
| VLASGFLTV (synthetic peptide; source gene TTPAL) [VLASGFLTV (SEQ ID NO: 47)] | ≥ 75 |
| TQTAVITRI (synthetic peptide; source gene FAM83D) [TQTAVITRI (SEQ ID NO: 42)] | 10 to 20 |
| ASDPILYRPVAV (synthetic peptide; source gene PKM) [ASDPILYRPVAV (SEQ ID NO: 71)] | 50 to 75 |
| MISRTPEV (synthetic peptide; source genes F7, IGHV4-31, IGHG1, IGHG2, IGHG3, IGHG4, IGHM) [MISRTPEV (SEQ ID NO: 17)] | 20 to 50 |
| YTAQIGADIAL (synthetic peptide; source genes TPSB2, TPSAB1) [YTAQIGADIAL (SEQ ID NO: 46)] | 50 to 75 |
| ALWLPTDSATV (synthetic peptide; source gene LAMB3) [ALWLPTDSATV (SEQ ID NO: 11)] | 50 to 75 |
| SLSPVILGV (synthetic peptide; source gene IL36RN) [SLSPVILGV (SEQ ID NO: 13)] | ≥ 75 |
| GLAPFLLNAV (synthetic peptide; source gene FAM115C) [GLAPFLLNAV (SEQ ID NO: 19)] | 50 to 75 |
| GLDVTSLRPFDL (synthetic peptide; source gene FLNA) [GLDVTSLRPFDL (SEQ ID NO: 33)] | 50 to 75 |
| GLMKDIVGA (synthetic peptide; source gene KYNU) [GLMKDIVGA (SEQ ID NO: 49)] | 50 to 75 |
| VVMEELLKV (synthetic peptide; source gene CYFIP1) [VVMEELLKV (SEQ ID NO: 60)] | 20 to 50 |
| LLFAGTMTV (synthetic peptide; source gene CYP2S1) [LLFAGTMTV (SEQ ID NO: 24)] | 20 to 50 |
| FVLDTSESV (synthetic peptide; source genes COL6A1, COL6A2) [FVLDTSESV (SEQ ID NO: 70)] | 50 to 75 |
| YMLDIFHEV (synthetic peptide; source gene HAS3) [YMLDIFHEV (SEQ ID NO: 32)] | 20 to 50 |

| Binder | peptide exchange yield [%] |
| --- | --- |
| GLESEELEPEEL (synthetic peptide; source gene PABPN1) [GLESEELEPEEL (SEQ ID NO: 41)] | 20 to 50 |
| IAAIRGFLV (synthetic peptide; source gene ABHD11) [IAAIRGFLV (SEQ ID NO: 38)] | 50 to 75 |
| SLDGFTIQV (synthetic peptide; source gene OAS2) [SLDGFTIQV (SEQ ID NO: 28)] | 20 to 50 |
| STYGGGLSV (synthetic peptide; source gene KRT14, KRT16) [STYGGGLSV (SEQ ID NO: 1)] | 50 to 75 |
| SLNGNQVTV (synthetic peptide; source gene QSER1) [SLNGNQVTV (SEQ ID NO: 30)] | 10 to 20 |
| LVRDTQSGSL (synthetic peptide; source gene SERPINH1) [LVRDTQSGSL (SEQ ID NO: 39)] | 20 to 50 |
| KVVGKDYLL (synthetic peptide; source gene CAPZB) [KVVGKDYLL (SEQ ID NO: 43)] | 10 to 20 |
| FLLRFSQDNA (synthetic peptide; source gene LAP3) [FLLRFSQDNA (SEQ ID NO: 36)] | 20 to 50 |
| MLAEKLLQA (synthetic peptide; source gene FAT1) [MLAEKLLQA (SEQ ID NO: 26)] | 10 to 20 |
| SLVSEQLEPA (synthetic peptide; source gene PKP3) [SLVSEQLEPA (SEQ ID NO: 34)] | 50 to 75 |
| SMHQMLDQTL (synthetic peptide; source gene TPM1) [SMHQMLDQTL (SEQ ID NO: 48)] | 20 to 50 |
| KLNDTYVNV (synthetic peptide; source gene TMEM194A) [KLNDTYVNV (SEQ ID NO: 22)] | 50 to 75 |
| GAIDLLHNV (synthetic peptide; source gene GBP5) [GAIDLLHNV (SEQ ID NO: 55)] | 20 to 50 |
| YVVGGFLYQRL (synthetic peptide; source gene M6PR) [YVVGGFLYQRL (SEQ ID NO: 65)] | 50 to 75 |
| LLANGVYAA (synthetic peptide; source gene ANO1) [LLANGVYAA (SEQ ID NO: 15)] | 10 to 20 |
| ALVEVTEHV (synthetic peptide; source gene TMEM132A) [ALVEVTEHV (SEQ ID NO: 56)] | 20 to 50 |
| PAVLQSSGLYSL (synthetic peptide; source genes IGHV4-31, IGHG1, IGHG2, IGHG3, IGHG4, IGHM) [PAVLQSSGLYSL (SEQ ID NO: 68)] | 20 to 50 |
| IVREFLTAL (synthetic peptide; source gene CRCP) [IVREFLTAL (SEQ ID NO: 21)] | 50 to 75 |
| LAYTLGVKQL (synthetic peptide; source genes EEF1A1P5, EEF1A1, EEF1A2) [LAYTLGVKQL (SEQ ID NO: 63)] | 50 to 75 |
| KLFGHLTSA (synthetic peptide; source gene PHTF2) [KLFGHLTSA (SEQ ID NO: 51)] | 20 to 50 |
| GLASRILDA (synthetic peptide; source gene LAMB3) [GLASRILDA (SEQ ID NO: 12)] | 50 to 75 |
| ALYEYQPLQI (synthetic peptide; source gene MNAT1) [ALYEYQPLQI (SEQ ID NO: 62)] | 20 to 50 |
